Data on one variant can be found in IntAct's records for PubMed 11880648.

B1: RNA polymerase sigma factor SigA (Mycobacterium tuberculosis (strain ATCC 25618 / P9WGI1 (parent)
chain: MAATKASTATDEPVKRTATKSPAASASGAKTGAKRTAAKSASGSPPAKRATKPAARSVKPASAPQDTTTSTIPKRKTRAAAKSAAAKAPSARGHATKPRAPKDAQHEAATDPEDALDSVEELDAEPDLDVEPGEDLDLDAADLNLDDLEDDVAPDADDDLDSGDDEDHEDLEAEAAVAPGQTADDDEEIAEPTEKDKASGDFVWDEDESEALRQARKDAELTASADSVRAYLKQIGKVALLNAEEEVELAKRIEAGLYATQLMTELSERGEKLPAAQRRDMMWICRDGDRAKNHLLEANLRLVVSLAKRYTGRGMAFLDLIQEGNLGLIRAVEKFDYTKGYKFSTYATWWIRQAITRAMADQARTIRIPVHMVEVINKLGRIQRELLQDLGREPTPEELAKEMDITPEKVLEIQQYAREPISLDQTIGDEGDSQLGDFIEDSEAVVAVDAVSFTLLQDQLQSVLDTLSEREAGVVRLRFGLTDGQPRTLDEIGQVYGVTRERIRQIESKTMSKLRHPSRSQVLRDYLD
partner: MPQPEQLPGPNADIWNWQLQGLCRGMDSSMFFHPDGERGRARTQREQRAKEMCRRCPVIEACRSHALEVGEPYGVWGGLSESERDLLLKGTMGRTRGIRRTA

In the assay the parent is B1. Particulars: with whib3_myctu whiB3, P9WF41.
With MAATKASTATDEPVKRTATKSPAASASGAKTGAKRTAAKSASGSPPAKRATKPAARSVKPASAPQDTTTSTIPKRKTRAAAKSAAAKAPSARGHATKPRAPKDAQHEAATDPEDALDSVEELDAEPDLDVEPGEDLDLDAADLNLDDLEDDVAPDADDDLDSGDDEDHEDLEAEAAVAPGQTADDDEEIAEPTEKDKASGDFVWDEDESEALRQARKDAELTASADSVRAYLKQIGKVALLNAEEEVELAKRIEAGLYATQLMTELSERGEKLPAAQRRDMMWICRDGDRAKNHLLEANLRLVVSLAKRYTGRGMAFLDLIQEGNLGLIRAVEKFDYTKGYKFSTYATWWIRQAITRAMADQARTIRIPVHMVEVINKLGRIQRELLQDLGREPTPEELAKEMDITPEKVLEIQQYAREPISLDQTIGDEGDSQLGDFIEDSEAVVAVDAVSFTLLQDQLQSVLDTLSEREAGVVRLRFGLTDGQPRTLDEIGQVYGVTRERIRQIESKTMSKLHHPSRSQVLRDYLD [R515H], the “effect of a mutation on the interaction” value is on record as “disrupting interaction strength”.
